The results in this text go back to patent US20260116937A1 (CHARACTER BIOSCIENCES, published 2026).

For the experiment, the target named is T1, human C3b (human, UniProt P01024 749-1663; P01024 23-667).
T1 construct: Coated on ELISA plates
Put plainly: ELISA on C3b-coated plates, absorbance at 450 nm. The method, then: A representative example of an FHL-1 engineered variant (e.g., a polypeptide of SEQ ID NO: 21) was compared with CFH and FHL-1 for C3b binding activity as presented in FIGS. 14A and 14B. […] In general, the data was derived from measuring binding on C3b coated plates via ELISA for test proteins (either as purified proteins or as culture supernatants from CHO cells transfected with expression vectors encoding test proteins). C3b binding activity was measured via absorbance at 450 nm. Mean+/−SEM absorbance values are shown with nonlinear sigmoidal 4PL fit. Of note, the FHL-1 engineered variant (e.g., Var 004, SEQ ID NO: 21) has increased C3b binding activity over native FHL-1.

T1 sequence (P01024 749-1663, chain 1 of 2): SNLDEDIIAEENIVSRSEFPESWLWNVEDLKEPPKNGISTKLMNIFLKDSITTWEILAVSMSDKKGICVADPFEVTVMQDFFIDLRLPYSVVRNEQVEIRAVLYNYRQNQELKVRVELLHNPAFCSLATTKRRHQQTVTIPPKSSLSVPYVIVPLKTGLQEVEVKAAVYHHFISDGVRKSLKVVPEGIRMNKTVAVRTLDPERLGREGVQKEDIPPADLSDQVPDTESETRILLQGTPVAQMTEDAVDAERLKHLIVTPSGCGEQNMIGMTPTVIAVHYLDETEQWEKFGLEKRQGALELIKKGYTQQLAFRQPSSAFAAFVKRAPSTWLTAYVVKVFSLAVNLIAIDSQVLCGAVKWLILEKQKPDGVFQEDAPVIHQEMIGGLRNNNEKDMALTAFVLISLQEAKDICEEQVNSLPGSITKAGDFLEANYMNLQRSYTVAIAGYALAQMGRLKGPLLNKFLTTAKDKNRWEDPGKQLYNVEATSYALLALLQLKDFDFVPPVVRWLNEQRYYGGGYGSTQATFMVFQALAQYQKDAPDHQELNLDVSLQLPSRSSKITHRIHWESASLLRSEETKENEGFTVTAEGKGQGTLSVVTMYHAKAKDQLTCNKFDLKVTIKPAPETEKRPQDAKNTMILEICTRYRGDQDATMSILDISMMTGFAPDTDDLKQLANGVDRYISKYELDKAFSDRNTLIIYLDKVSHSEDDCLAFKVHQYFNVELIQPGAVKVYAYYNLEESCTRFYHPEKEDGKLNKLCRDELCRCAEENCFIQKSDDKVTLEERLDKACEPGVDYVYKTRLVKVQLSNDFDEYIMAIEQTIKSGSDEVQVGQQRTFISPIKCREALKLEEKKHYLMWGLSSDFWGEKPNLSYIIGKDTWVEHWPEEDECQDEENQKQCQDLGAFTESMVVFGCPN
T1 sequence (P01024 23-667, chain 2 of 2): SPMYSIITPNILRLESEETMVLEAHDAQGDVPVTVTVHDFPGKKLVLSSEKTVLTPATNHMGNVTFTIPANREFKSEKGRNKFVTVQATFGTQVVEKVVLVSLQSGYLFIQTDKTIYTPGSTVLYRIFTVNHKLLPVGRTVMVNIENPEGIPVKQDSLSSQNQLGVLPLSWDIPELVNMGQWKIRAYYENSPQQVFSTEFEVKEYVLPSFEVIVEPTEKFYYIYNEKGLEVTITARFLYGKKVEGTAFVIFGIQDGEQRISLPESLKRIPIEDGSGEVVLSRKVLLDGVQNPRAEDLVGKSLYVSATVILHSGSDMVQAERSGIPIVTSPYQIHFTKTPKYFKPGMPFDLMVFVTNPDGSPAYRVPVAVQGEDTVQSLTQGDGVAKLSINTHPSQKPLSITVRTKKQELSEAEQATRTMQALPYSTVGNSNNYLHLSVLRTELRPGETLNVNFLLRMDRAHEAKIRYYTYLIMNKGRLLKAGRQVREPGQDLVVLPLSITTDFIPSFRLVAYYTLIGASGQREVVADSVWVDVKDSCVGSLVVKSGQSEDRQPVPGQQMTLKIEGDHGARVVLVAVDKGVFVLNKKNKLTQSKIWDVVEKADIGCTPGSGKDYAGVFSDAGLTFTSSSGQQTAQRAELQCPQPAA

B1: complement factor H (CFH) (other)
chain: EDCNELPPRRNTEILTGSWSDQTYPEGTQAIYKCRPGYRSLGNVIMVCRKGEWVALNPLRKCQKRPCGHPGDTPFGTFTLTGGNVFEYGVKAVYTCNEGYQLLGEINYRECDTDGWTNDIPICEVVKCLPVTAPENGKIVSSAMEPDREYHFGQAVRFVCNSGYKIEGDEEMHCSDDGFWSKEKPKCVEISCKSPDVINGSPISQKIIYKENERFQYKCNMGYEYSERGDAVCTESGWRPLPSCEEKSCDNPYIPNGDYSPLRIKHRTGDEITYQCRNGFYPATRGNTAKCTSTGWIPAPRCTLKPCDYPDIKHGGLYHENMRRPYFPVAVGKYYSYYCDEHFETPSGSYWDHIHCTQDGWSPAVPCLRKCYFPYLENGYNQNYGRKFVQGKSIDVACHPGYALPKAQTTVTCMENGWSPTPRCIRVKTCSKSSIDIENGFISESQYTYALKEKAKYQCKLGYVTADGETSGSITCGKDGWSAQPTCIKSCDIPVFMNARTKNDFTWFKLNDTLDYECHDGYESNTGSTTGSIVCGYNGWSDLPICYERECELPKIDVHLVPDRKKDQYKVGEVLKFSCKPGFTIVGPNSVQCYHFGLSPDLPICKEQVQSCGPPPELLNGNVKEKTKEEYGHSEVVEYYCNPRFLMKGPNKIQCVDGEWTTLPVCIVEESTCGDIPELEHGWAQLSSPPYYYGDSVEFNCSESFTMIGHRSITCIHGVWTQLPQCVAIDKLKKCKSSNLIILEEHLKNKKEFDHNSNIRYRCRGKEGWIHTVCINGRWDPEVNCSMAQIQLCPPPPQIPNSHNMTTTLNYRDGEKVSVLCQENYLIQEGEEITCKDGRWQSIPLCVEKIPCSQPPQIEHGTINSSRSSQESYAHGTKLSYTCEGGFRISEENETTCYMGKWSSPPQCEGLPCKSPPEISHGVVAHMSDSYQYGEEVTYKCFEGFGIDGPAIAKCLGEKWSHPPSCIKTDCLSLPSFENAIPMGEKKDVYKAGEQVTYTCATYYKMDGASNVTCINSRWTGRPTCRDTSCVNPPTVQNAYIVSRQMSKYPSGERVRYQCRSPYEMFGDEEVMCLNGNWTEPPQCKDSTGKCGPPPPIDNGDITSFPLSVYAPASSVEYQCQNLYQLEGNKRITCRNGQWSEPPKCLHPCVISREIMENYNIALRWTAKQKLYSRTGESVEFVCKRGYRLSSRSHTLRTTCWDGKLEYPTCAKR
notes: Purified CFH used as control
As to B1, the binding result is “binds”.

B2: Var004 (engineered variant of FHL-1) (designed binder)
chain: EDCNELPPRRNTEILTGSWSDQTYPEGTQAIYKCRPGYRSLGNVIMVCRKGEWVALNPLRKCQKRPCGHPGDTPFGTFTLTGGNVFEYGVKAVYTCNEGYQLLGEINYRECDTDGWTNDIPICEVVKCLPVTAPENGKIVSSAMEPDREYHFGQAVRFVCNSGYKIEGDEEMHCSDDGFWSKEKPKCVEISCKSPDVINGSPISQKIIYKENERFQYKCNMGYEYSERGDAVCTESGWRPLPSCEEKSCDNPYIPNGDYSPLRIKHRTGDEITYQCRNGFYPATRGNTAKCTSTGWIPAPRCTLKPCDYPDIKHGGLYHENMRRPYFPVAVGKYYSYYCDEHFETPSGSYWDHIHCTQDGWSPAVPCLRKCYFPYLENGYNQNYGRKFVQGKSIDVACHPGYALPKAQTTVTCMENGWSPTPRCIRVSGGGGSGGGGSGGGGSTLKPCDYPDIKHGGLYHENMRRPYFPVAVGKYYSYYCDEHFETPSGSYWDHIHCTQDGWSPAVPCLRKCYFPYLENGYNQNYGRKFVQGKSIDVACHPGYALPKAQTTVTCMENGWSPTPRCIRVSFTL
notes: Tested as purified protein or as CHO culture supernatant; also called FHL-1 engineered variant
With B2, the binding result is “binds”.

B3: Factor H-like protein 1 (FHL-1) (other)
chain: EDCNELPPRRNTEILTGSWSDQTYPEGTQAIYKCRPGYRSLGNVIMVCRKGEWVALNPLRKCQKRPCGHPGDTPFGTFTLTGGNVFEYGVKAVYTCNEGYQLLGEINYRECDTDGWTNDIPICEVVKCLPVTAPENGKIVSSAMEPDREYHFGQAVRFVCNSGYKIEGDEEMHCSDDGFWSKEKPKCVEISCKSPDVINGSPISQKIIYKENERFQYKCNMGYEYSERGDAVCTESGWRPLPSCEEKSCDNPYIPNGDYSPLRIKHRTGDEITYQCRNGFYPATRGNTAKCTSTGWIPAPRCTLKPCDYPDIKHGGLYHENMRRPYFPVAVGKYYSYYCDEHFETPSGSYWDHIHCTQDGWSPAVPCLRKCYFPYLENGYNQNYGRKFVQGKSIDVACHPGYALPKAQTTVTCMENGWSPTPRCIRVSFTL
notes: Control protein, purified or as CHO culture supernatant; also called native FHL-1
Consider B3, for which the binding result is “binds”.
